Experimental findings from patent US20240150440A1 (LUMEN BIOSCIENCE, published 2024) are described below.

For test [1], the target named is T1, SARS-CoV-2 Alpha Variant RBD (SARS-CoV-2 Alpha variant).
T1 construct: domain: RBD; coated on ELISA plates
The test is described as follows: ELISA, RBD coated. A general note: An ELISA detects its analyte on a solid surface through an enzyme-linked reagent.

The target of test [2] is T2, SARS-CoV-2 Delta Variant RBD (SARS-CoV-2 Delta variant).
T2 construct: domain: RBD; coated on ELISA plates
In words: ELISA, RBD coated.

Test [3] has as its target T3, SARS-CoV-2 spike protein on pseudotyped lentivirus (Wuhan Reference Pseudovirus) (SARS-CoV-2, UniProt P0DTC2 14-1273). The test is described as follows: cell-based or functional assay.
Test [4] deals with T4, SARS-CoV-2 Beta Variant RBD (SARS-CoV-2 Beta variant).
T4 construct: domain: RBD; coated on ELISA plates
In words: ELISA, RBD coated.

Test [5] deals with T5, SARS-CoV-2 Gamma Variant RBD (SARS-CoV-2 Gamma variant).
T5 construct: domain: RBD; coated on ELISA plates
The test is described as follows: ELISA, RBD coated.

Test [6] has as its target T3, SARS-CoV-2 spike protein on pseudotyped …. In words: cell-based or functional assay. This is another data set of the same source.

B1: PP1176 MBP-5HVZ-PAPA-R2a-F3-H6 (VHH)
VHH: QVQLVESGGGLVQPGGSLRLSCAASGSITSINWMHWFRQAPGKDREGVASISQTGRGSYADSVKGRFTISRDNAKNTVYLQMNSLKPEDTAVYYCAAASRTGTPYNYWGQGTQVTVSS
notes: Form: Dimer
The EC50 is the midpoint of the concentration-response curve. Read a low EC50 as higher potency in that assay. Regarding B1, the half-maximal effective concentration (EC50) in test [1] came to 0.27 nM; in test [2] it was 2.67 nM. The “infectivity % under 10 ug/mL VHH treatment” value (“infectivity %” below) in test [3] is 58.4%.

B2: PP1096 MBP-5HVZ-PAPA-RN-3-H6 (VHH)
VHH: QVQLVESGGGLVQPGGSLRLSCAASGFEFTYRAVHWFRQAPGKGREWVAGVVSGGSTYYADSVKGRFTISRDNAKNTVYLQMNSLKPEDTAVYYCNAGPQAEEDTYDYWGQGTQVTVSS
Turning to B2, the EC50 in test [1] was 1.92 nM; in test [4], 63.2 nM; in test [5] it was 28.4 nM. The “infectivity %” value in test [3] is 86.5%.

B3: PP931 MBP-5HVZ-R5a-F5-H6 (VHH)
VHH: QVQLVESGGGLVQPGGSLRLSCAASGYHASILAMHWVRQAPGKEREWVASMTWSDMTQYSDSVKGRFTISRDNAKNTVYLQMNSLKPEDTAVYYCAATYVTRDRPWTHWGQGTQVTVSS
notes: Form: Dimer
Take B3: the EC50 in test [1] came to 2.07 nM; in test [4] it was 134 nM; in test [5], 110 nM; in test [2] it was 127 nM. The “infectivity %” value in test [3] was 57.5%.

B4: PP927 MBP-5HVZ-R1i-C8-H6 (VHH)
VHH: QVQLVESGGGLVQPGGSLRLSCAASGRQFGAWRMHWYRQAPGKQREWVAGITSGTSGNYADSVKGRFTISRDNAKNTVYLQMNSLKPEDTAVYYCAATSHTTYHAEYWGQGTQVTVSS
notes: Form: Dimer
With B4, the values for the EC50 in test [1] and in test [2] were 2.22 nM and 94.2 nM, respectively. Moreover, the “infectivity %” value in test [3] is 45.4%.

B5: PP906 MBP-5HVZ-S1b-E7-H6 (VHH)
VHH: QVQLVESGGGLVQPGGSLRLSCAASGGEFSDNGLHWFRQAPGKQREFVATASSDGSTQYRDSVKGRFTISRDNAKNTVYLQMNSLKPEDTAVYYCTALLMSSAGEYDVWGQGTQVTVSS
notes: Form: Dimer
Take B5: the EC50 in test [1] amounted to 1.97 nM; in test [4], 988 nM; in test [5], 378 nM; in test [2], 205 nM. Also, the “infectivity %” value in test [3] is 69.6%.

B6: PP1112 MBP-5HVZ-PAPA-RN-28-H6 (VHH)
VHH: QVQLVESGGGLVQPGGSLRLSCAASGSQFSHNLMSWFRQAPGKQREFVAAITSFGSTGYADSVKGRFTISRDNAKNTVYLQMNSLKPEDTAVYYCAALSSEDTSHYPRNYWGQGTQVTVSS
notes: Form: Dimer
As to B6, the EC50 is 1.76 nM in test [1], 4.77 nM in test [4], 3.01 nM in test [5] and 15.1 nM in test [2]. The “infectivity %” value in test [3] is 70.4%.

B7: PP1110 MBP-5HVZ-PAPA-RN-26-H6 (VHH)
VHH: QVQLVESGGGLVQPGGSLRLSCAASGSISSINSMHWYRQAPGKEREWVAAVSSYGSDYYADSVKGRFTISRDNAKNTVYLQMNSLKPEDTAVYYCAARTVTGFTYGDYWGQGTQVTVSS
notes: Form: Dimer
In the case of B7, the EC50 turned out to be 4.98 nM in test [1], 17 nM in test [4], 8.98 nM in test [5] and 407 nM in test [2]. Further, in test [3], the “infectivity %” value came to 57.9%.

B8: PP1160 MPB-scTRP-PAPA-R5a-C5-H6 (VHH)
VHH: QVQLVESGGGLVQPGGSLRLSCAASGDIFSINALHWFRQAPGKQREEVAAITSGGSTGYADSVKGRFTISRDNAKNTVYLQMNSLKPEDTAVYYCAAQQARGGLDSDYWGQGTQVTVSS
notes: Form: Trimer
With B8, the “infectivity %” value in test [3] worked out at 4.22%. In addition, in test [6], the “Pseudovirus neutralization IC50” value came out at 2.41 nM.

B9: PP1098 MBP-5HVZ-PAPA-RN-9-H6 (VHH)
VHH: QVQLVESGGGLVQPGGSLRLSCAASGLRFAMTEMAWFRQAPGKQREFVALITEGGSGSYGDSVKGRFTISRDNAKNTVYLQMNSLKPEDTAVYYCAALHYTEGANTESATTFDYWGQGTQVTVSS
For B9, the EC50 in test [1] is 0.97 nM; in test [4], 24.8 nM; in test [5], 11.2 nM. In test [3], the “infectivity %” value was determined as 58.3%.

B10: PP1109 MBP-5HVZ-PAPA-RN-25-H6 (VHH)
VHH: QVQLVESGGGLVQPGGSLRLSCAASGEDYSYNAAHWFRQAPGKEREWVAAINSGGGTYYADSVKGRFTISRDNAKNTVYLQMNSLKPEDTAVYYCAYLGALDRDGYDAWGQGTQVTVSS
notes: Form: Dimer
With B10, the EC50 is 1.12 nM in test [1], 17.1 nM in test [4], 11 nM in test [5] and 115 nM in test [2]. Also, the “infectivity %” value in test [3] worked out at 88%.

B11: PP930 MBP-5HVZ-R2b-D4-H6 (VHH)
VHH: QVQLVESGGGLVQPGGSLRLSCAASGSYASIASMHWFRQAPGKQREFVAGLTSGGSRIYGDSVKGRFTISRDNAKNTVYLQMNSLKPEDTAVYYCTALILHYAGMYDYWGQGTQVTVSS
notes: Form: Dimer
For B11, the EC50 worked out at 3.9 nM in test [1], 13 nM in test [4], 10.2 nM in test [5] and 21.1 nM in test [2]. Moreover, the “infectivity %” value in test [3] was 35.6%.

B12: PP915 MBP-5HVZ-S3b-A7-H6 (VHH)
VHH: QVQLVESGGGLVQPGGSLRLSCAASGSIASINAIHWVRQAPGKQREEVAAITSGGSTGYADSVKGRFTISRDNAKNTVYLQMNSLKPEDTAVYYCAAQPGQSYAVWGQGTQVTVSS
notes: Form: Dimer
Take B12: the EC50 in test [1] turned out to be 0.52 nM; in test [2] it was 37.8 nM. In test [3], the “infectivity %” value is 90.5%.

B13: PP1101 MBP-5HVZ-PAPA-RN-16-H6 (VHH)
VHH: QVQLVESGGGLVQPGGSLRLSCAASGADFSSNAMHWFRQAPGKAREFVASIDSDKSGYYADSVKGRFTISRDNAKNTVYLQMNSLKPEDTAVYYCNAYSGTDNYGYDYWGQGTQVTVSS
notes: Form: Dimer
Regarding B13, the 50% effective concentration (EC50) in test [1] was found to be 1.77 nM; in test [4], 115 nM; in test [5] it was 51.5 nM; in test [2] it was 42.6 nM. For the same molecule, the “infectivity %” value in test [3] came to 91.8%.

B14: PP911 MBP-5HVZ-S2b-F7-H6 (VHH)
VHH: QVQLVESGGGLVQPGGSLRLSCAASGSTLSNNAMHWFRQAPGKAREFVAAIGSSDSTDYKDSVKGRFTISRDNAKNTVYLQMNSLKPEDTAVYYCTALLDSGPGEYNYWGQGTQVTVSS
notes: Form: Dimer
Regarding B14, the EC50 in test [1] was determined as 2.19 nM; in test [4] it was 545 nM; in test [5], 317 nM. Besides, in test [3], the “infectivity %” value turned out to be 74.9%.

B15: PP1095 MBP-5HVZ-PAPA-RN-2-H6 (VHH)
VHH: QVQLVESGGGLVQPGGSLRLSCAASGSYFSKNAVHWYRQAPGKGREWVAALTNSGSGNYKDSVKGRFTISRDNAKNTVYLQMNSLKPEDTAVYYCTANISESTGQGYDYWGQGTQVTVSS
Take B15: the EC50 was found to be 1.18 nM in test [1], 193 nM in test [4], 90.9 nM in test [5] and 16.9 nM in test [2]. Further, the “infectivity %” value in test [3] came to 76.8%.

B16: PP1111 MBP-5HVZ-PAPA-RN-27-H6 (VHH)
VHH: QVQLVESGGGLVQPGGSLRLSCAASGPQFSSNAVSWFRQAPGKEREWVAGITSGGSTDYADSVKGRFTISRDNAKNTVYLQMNSLKPEDTAVYYCTAPSVSDADRRTRDYWGQGTQVTVSS
notes: Form: Dimer
As to B16, the EC50 in test [1] is 0.31 nM; in test [4], 1.57 nM; in test [5] it was 1.6 nM; in test [2], 231 nM. In addition, the “infectivity %” value in test [3] was 68.3%.

B17: PP909 MBP-5HVZ-S2b-A7-H6 (VHH)
VHH: QVQLVESGGGLVQPGGSLRLSCAASGSSDSWNALHWFRQAPGKEREFVAGISSAGSGYYADSVKGRFTISRDNAKNTVYLQMNSLKPEDTAVYYCNGYEHTTGYDYWGQGTQVTVSS
notes: Form: Dimer
For B17, the EC50 is 0.44 nM in test [1], 8.1 nM in test [4], 5.37 nM in test [5] and 81.4 nM in test [2].

B18: PP912 MBP-5HVZ-S2b-G8-H6 (VHH)
VHH: QVQLVESGGGLVQPGGSLRLSCAASGSIQSYEAMHWFRQAPGKAREWVAVITWGDSTQYGDSVKGRFTISRDNAKNTVYLQMNSLKPEDTAVYYCAADVRQGYSSWGQGTQVTVSS
notes: Form: Dimer
For the molecule B18, the EC50 in test [1] was 1.96 nM; in test [4] it was 365 nM; in test [5] it was 177 nM; in test [2] it was 622 nM. Also, the “infectivity %” value in test [3] came to 73.2%.

B19: PP1094 MBP-5HVZ-PAPA-RN-1-H6 (VHH)
VHH: QVQLVESGGGLVQPGGSLRLSCAASGYIFEGGPTAWFRQAPGKGREFVAAITTSGETSYAYSVKGRFTISRDNAKNTVYLQMNSLKPEDTAVYYCNATDRDETGYDYWGQGTQVTVSS
Regarding B19, the EC50 was determined as 0.89 nM in test [1], 315 nM in test [4], 160 nM in test [5] and 49.9 nM in test [2]. The “infectivity %” value in test [3] stood at 83.4%.

B20: PP1099 MBP-5HVZ-PAPA-RN-12-H6 (VHH)
VHH: QVQLVESGGGLVQPGGSLRLSCAASGSSFEGNAVHWFRQAPGKNREFVATITTSTSYYYADSVKGRFTISRDNAKNTVYLQMNSLKPEDTAVYYCAARLKDRGPQSEYDYWGQGTQVTVSS
notes: Form: Dimer
On to B20, for which the concentration for a half-maximal effect (EC50) in test [1] came to 4.95 nM; in test [4] it was 194 nM; in test [5], 160 nM. In addition, the “infectivity %” value in test [3] was 70.6%.

B21: PP933 MBP-5HVZ-R5e-C1-H6 (VHH)
VHH: QVQLVESGGGLVQPGGSLRLSCAASGSIPYVQAMSWFRQAPGKGREGVASIGWGGGTYYADSVKGRFTISRDNAKNTVYLQMNSLKPEDTAVYYCAAKFRENFSFYDYWGQGTQVTVSS
notes: Form: Dimer
As to B21, the EC50 was determined as 9.74 nM in test [1], 10.2 nM in test [4], 9.73 nM in test [5] and 8.87 nM in test [2].
